# Numbering of substitutions follows the chain as printed. Numbers in names are those of the source.
# B1: 5-IATR-ParM (WT): wild-type ParM labeled with 5-IATR (conjugate, UniProt P11904 1-320, looked up)
# Plasmid segregation protein …: MLVFIDDGSTNIKLQWQESDGTIKQHISPNSFKREWAVSFGDKKVFNYTLNGEQYSFDPISPDAVVTTNIAWQYSDVNVVAVHHALLTSGLPVSEVDIVCTLPLTEYYDRNNQPNTENIERKKANFRKKITLNGGDTFTIKDVKVMPESIPAGYEVLQELDELDSLLIIDLGGTTLDISQVMGKLSGISKIYGDSSLGVSLVTSAVKDALSLARTKGSSYLADDIIIHRKDNNYLKQRINDENKISIVTEAMNEALRKLEQRVLNTLNEFSGYTHVMVIGGGAELICDAVKKHTQIRDERFFKTNNSQYDLVNGMYLIGN
# modifications: 5-IATR label
# B2: MIANS-ParM (I27C): ParM I27C/C287A labeled with MIANS (conjugate, UniProt P11904 1-320, looked up, variant I27C C287A)
# Plasmid segregation protein …: B1 Plasmid segregation protein … with I27C, C287A
# modifications: MIANS label
# B3: Acrylodan-ParM (WT): wild-type ParM labeled with acrylodan (conjugate, UniProt P11904 1-320, looked up)
# Plasmid segregation protein …: B1 Plasmid segregation protein …
# modifications: acrylodan label
# B4: MDCC-ParM (D63C): ParM D63C/C287A labeled with MDCC (conjugate, UniProt P11904 1-320, looked up, variant D63C C287A)
# Plasmid segregation protein …: B1 Plasmid segregation protein … with D63C, C287A
# modifications: MDCC label
# B5: MIANS-ParM (WT): wild-type ParM labeled with MIANS (conjugate, UniProt P11904 1-320, looked up)
# Plasmid segregation protein …: B1 Plasmid segregation protein …
# modifications: MIANS label
# B6: 5-IATR-ParM (I27C) (conjugate, UniProt P11904 1-320, looked up, variant I27C)
# Plasmid segregation protein …: B1 Plasmid segregation protein … with I27C
# modifications: 5-IATR rhodamine label
# B7: 5-IATR-ParM (D63C) (conjugate, UniProt P11904 1-320, looked up, variant D63C)
# Plasmid segregation protein …: B1 Plasmid segregation protein … with D63C
# modifications: 5-IATR rhodamine label
# B8: MDCC-ParM (WT): wild-type ParM labeled with MDCC (conjugate, UniProt P11904 1-320, looked up)
# Plasmid segregation protein …: B1 Plasmid segregation protein …
# modifications: MDCC label
# B9: IDCC-ParM (D63C): ParM D63C/C287A labeled with IDCC (conjugate, UniProt P11904 1-320, looked up, variant D63C C287A)
# Plasmid segregation protein …: B1 Plasmid segregation protein … with D63C, C287A
# modifications: IDCC label
# B10: MDCC-ParM (T215C): ParM T215C/C287A labeled with MDCC (conjugate, UniProt P11904 1-320, looked up, variant T215C C287A)
# Plasmid segregation protein …: B1 Plasmid segregation protein … with T215C, C287A
# modifications: MDCC label
# B11: CPM-ParM (T215C): ParM T215C/C287A labeled with CPM (conjugate, UniProt P11904 1-320, looked up, variant T215C C287A)
# Plasmid segregation protein …: B1 Plasmid segregation protein … with T215C, C287A
# modifications: CPM label
# B12: Alexa 488-ParM (I27C): ParM I27C/C287A labeled with AlexaFluor-488-maleimide (conjugate, UniProt P11904 1-320, looked up, variant I27C C287A)
# Plasmid segregation protein …: B1 Plasmid segregation protein … with I27C, C287A
# modifications: Alexa Fluor 488 label
# B13: MPrCC-ParM (T215C): ParM T215C/C287A labeled with MPrCC (conjugate, UniProt P11904 1-320, looked up, variant T215C C287A)
# Plasmid segregation protein …: B1 Plasmid segregation protein … with T215C, C287A
# modifications: MPrCC label
# B14: Cy3b-ParM (I27C): ParM I27C/C287A labeled with Cy3B-maleimide (conjugate, UniProt P11904 1-320, looked up, variant I27C C287A)
# Plasmid segregation protein …: B1 Plasmid segregation protein … with I27C, C287A
# modifications: Cy3B label
# B15: IDCC-ParM (WT): wild-type ParM labeled with IDCC (conjugate, UniProt P11904 1-320, looked up)
# Plasmid segregation protein …: B1 Plasmid segregation protein …
# modifications: IDCC label
# B16: CPM-ParM (S204C): ParM S204C/C287A labeled with CPM (conjugate, UniProt P11904 1-320, looked up, variant S204C C287A)
# Plasmid segregation protein …: B1 Plasmid segregation protein … with S204C, C287A
# modifications: CPM label
# B17: IDCC-ParM (I27C): ParM I27C/C287A labeled with IDCC (conjugate, UniProt P11904 1-320, looked up, variant I27C C287A)
# Plasmid segregation protein …: B1 Plasmid segregation protein … with I27C, C287A
# modifications: IDCC label
# B18: IDCC-ParM (T215C): ParM T215C/C287A labeled with IDCC (conjugate, UniProt P11904 1-320, looked up, variant T215C C287A)
# Plasmid segregation protein …: B1 Plasmid segregation protein … with T215C, C287A
# modifications: IDCC label
# B19: CPM-ParM (I27C): ParM I27C/C287A labeled with CPM (conjugate, UniProt P11904 1-320, looked up, variant I27C C287A)
# Plasmid segregation protein …: B1 Plasmid segregation protein … with I27C, C287A
# modifications: CPM label
# B20: MPrCC-ParM (I27C): ParM I27C/C287A labeled with MPrCC (conjugate, UniProt P11904 1-320, looked up, variant I27C C287A)
# Plasmid segregation protein …: B1 Plasmid segregation protein … with I27C, C287A
# modifications: MPrCC label
# B21: MDCC-ParM (D58C): ParM D58C/C287A labeled with MDCC (conjugate, UniProt P11904 1-320, looked up, variant D58C C287A)
# Plasmid segregation protein …: B1 Plasmid segregation protein … with D58C, C287A
# modifications: MDCC label
# B22: IDCC-ParM (S204C): ParM S204C/C287A labeled with IDCC (conjugate, UniProt P11904 1-320, looked up, variant S204C C287A)
# Plasmid segregation protein …: B1 Plasmid segregation protein … with S204C, C287A
# modifications: IDCC label
# B23: MDCC-ParM (S204C): ParM S204C/C287A labeled with MDCC (conjugate, UniProt P11904 1-320, looked up, variant S204C C287A)
# Plasmid segregation protein …: B1 Plasmid segregation protein … with S204C, C287A
# modifications: MDCC label
# B24: 6-IATR-ParM (WT): wild-type ParM labeled with 6-IATR (conjugate, UniProt P11904 1-320, looked up)
# Plasmid segregation protein …: B1 Plasmid segregation protein …
# modifications: 6-IATR label
# B25: MIANS-ParM (S204C): ParM S204C/C287A labeled with MIANS (conjugate, UniProt P11904 1-320, looked up, variant S204C C287A)
# Plasmid segregation protein …: B1 Plasmid segregation protein … with S204C, C287A
# modifications: MIANS label
# B26: Cy3-ParM (I27C): ParM I27C/C287A labeled with Cy3-maleimide (conjugate, UniProt P11904 1-320, looked up, variant I27C C287A)
# Plasmid segregation protein …: B1 Plasmid segregation protein … with I27C, C287A
# modifications: Cy3-maleimide label
# B27: IDCC-ParM (D58C): ParM D58C/C287A labeled with IDCC (conjugate, UniProt P11904 1-320, looked up, variant D58C C287A)
# Plasmid segregation protein …: B1 Plasmid segregation protein … with D58C, C287A
# modifications: IDCC label
# B28: 5-IATR-ParM (D58C) (conjugate, UniProt P11904 1-320, looked up, variant D58C)
# Plasmid segregation protein …: B1 Plasmid segregation protein … with D58C
# modifications: 5-IATR rhodamine label
# Assay: Screening mutant/fluorophore combinations for a fluorescence response to ADP
# Conditions: ParM mutant/fluorophore combination
row,Molecule,"Fluorescence change, ratio of the intensity in presence of 1 mM ADP to that in the absence of ADP"
1,B1,0.74
2,B2,0.72
3,B3,0.59
4,B4,0.48
5,B5,0.50
6,B6,1.3
7,B7,0.80
8,B8,0.27
9,B9,0.53
10,B10,0.74
11,B11,0.76
12,B12,0.78
13,B13,0.78
14,B14,0.83
15,B15,0.34
16,B16,0.62
17,B17,1.5
18,B18,0.74
19,B19,0.62
20,B20,1.1
21,B21,0.82
22,B22,0.80
23,B23,0.68
24,B24,0.70
25,B25,0.91
26,B26,1.2
27,B27,0.93
28,B28,0.83
